From US20050089871 come the findings set out here.

The target in the data set is D1 receptor of human renal proximal tubule cells (UniProt P21728).
Sequence of D1 receptor of human renal proximal tubule cells (P21728 whole entry): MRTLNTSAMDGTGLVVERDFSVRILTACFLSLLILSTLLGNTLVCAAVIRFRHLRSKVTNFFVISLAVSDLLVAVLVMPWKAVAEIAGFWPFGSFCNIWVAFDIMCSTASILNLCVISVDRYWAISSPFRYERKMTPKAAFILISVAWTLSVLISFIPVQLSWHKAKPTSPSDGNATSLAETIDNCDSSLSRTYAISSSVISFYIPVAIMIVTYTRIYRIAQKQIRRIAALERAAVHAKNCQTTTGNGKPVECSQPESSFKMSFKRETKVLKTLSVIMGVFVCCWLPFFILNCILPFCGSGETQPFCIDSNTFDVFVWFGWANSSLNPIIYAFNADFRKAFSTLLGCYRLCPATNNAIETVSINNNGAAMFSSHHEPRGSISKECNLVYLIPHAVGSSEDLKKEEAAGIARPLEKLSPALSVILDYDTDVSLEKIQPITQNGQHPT

Turning to “GRK4 of human renal proximal tubule cells”, the “serine phosphorylation of the D1 receptor (immunoprecipitation with anti D1 receptor antibody, anti-phosphoserine immunoblot) after GRK4 antisense treatment” value is “GRK4 antisense treatment almost completely abolished the phosphorylation of the D1 receptor in fenoldopam-treated renal proximal tubule cells from hypertensive subjects to levels that are lower than basal values”.
